# In US20220275097A1:
# Molecular target: leptin receptor on reporter cells (SIE-luciferase reporter cells; Ba/F3-lepR reporter cells), P48357
# Assay: cell-based or functional assay
# Sequence of leptin receptor on reporter cells (SIE-luciferase reporter cells; Ba/F3-lepR reporter cells), P48357 (P48357 22-1165): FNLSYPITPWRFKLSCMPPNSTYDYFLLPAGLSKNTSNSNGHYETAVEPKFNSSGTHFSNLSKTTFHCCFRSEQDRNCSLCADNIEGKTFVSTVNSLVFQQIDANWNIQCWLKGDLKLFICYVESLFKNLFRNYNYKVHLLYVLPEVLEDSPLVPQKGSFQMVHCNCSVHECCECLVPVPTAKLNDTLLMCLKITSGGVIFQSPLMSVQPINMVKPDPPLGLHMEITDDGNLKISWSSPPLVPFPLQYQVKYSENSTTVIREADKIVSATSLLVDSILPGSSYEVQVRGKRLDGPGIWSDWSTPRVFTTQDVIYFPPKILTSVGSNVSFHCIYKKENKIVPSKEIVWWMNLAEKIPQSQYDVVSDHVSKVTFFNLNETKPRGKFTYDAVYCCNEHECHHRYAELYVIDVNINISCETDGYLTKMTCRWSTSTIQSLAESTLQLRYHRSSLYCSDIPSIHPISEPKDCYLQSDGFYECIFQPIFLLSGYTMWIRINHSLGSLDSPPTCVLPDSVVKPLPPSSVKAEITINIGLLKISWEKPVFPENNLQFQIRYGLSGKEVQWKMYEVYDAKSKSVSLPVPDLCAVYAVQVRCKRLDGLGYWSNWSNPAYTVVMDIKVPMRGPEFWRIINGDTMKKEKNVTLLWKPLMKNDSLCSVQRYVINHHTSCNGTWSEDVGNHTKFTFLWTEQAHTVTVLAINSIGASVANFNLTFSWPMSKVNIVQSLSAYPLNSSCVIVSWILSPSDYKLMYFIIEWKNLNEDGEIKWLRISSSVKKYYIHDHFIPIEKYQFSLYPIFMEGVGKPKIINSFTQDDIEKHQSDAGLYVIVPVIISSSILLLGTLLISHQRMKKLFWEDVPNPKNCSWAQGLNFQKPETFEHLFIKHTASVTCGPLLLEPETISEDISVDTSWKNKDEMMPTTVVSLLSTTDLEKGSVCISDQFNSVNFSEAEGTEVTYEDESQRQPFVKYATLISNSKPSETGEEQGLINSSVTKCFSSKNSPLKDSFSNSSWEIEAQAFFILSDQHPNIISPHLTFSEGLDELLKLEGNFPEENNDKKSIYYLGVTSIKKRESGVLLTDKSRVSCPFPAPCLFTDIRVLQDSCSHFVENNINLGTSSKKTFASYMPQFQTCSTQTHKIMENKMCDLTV
Binder,"EC50(M), Cell proliferation assay (Ba/F3-lepR) [M]","EC50(M), Luciferase assay [M]","EC50, SIE-luciferase reporter assay [pM]"
"S2H1 (antibody, V domains shown) VH: QVQLLQSGGGVVQPGRSLRLSCAASGFTFSSYGMHWVRQAPGKGLEWVAVISYDGSNKYYADSVKGRFTISRDNSKNTLYLQMNSLRAEDTAVYYCASLYENYFSLWGQGTLVTVSS VL: EIVLTQSPGTLSLSPGERATLSCRASQSVSSNYLAWYQQKPGQAPRLLIYGASSRPTGIPDRFSGSGSGTDFTLTISRLEPEDFAVYYCQQYAASPLTFGGGTKLEIK",4.19e-10,4.53e-10,453
"S2H5 (antibody, V domains shown) VH: QVQLLQSGGGVVQPGRSLRLSCAASGFTFSSYGMHWVRQAPGKGLEWVAVISYDGSNKYYADSVKGRFTISRDNSKNTLYLQMNSLRAEDTAVYYCASRYENYFSLWGQGTLVTVSS VL: EIVLTQSPGTLSLSPGERATLSCRASQSVSSNYLAWYQQKPGQAPRLLIYGASSRPTGIPDRFSGSGSGTDFTLTISRLEPEDFAVYYCQQYAASPLTFGGGTKLEIK",1.63e-09,7.38e-10,738

# Next, values leading:
"EC50(M), Cell proliferation assay (Ba/F3-lepR) [M]","EC50(M), Luciferase assay [M]","EC50, SIE-luciferase reporter assay [pM]",Binder
1.15e-09,4.94e-10,494,"S2H7 (antibody, V domains shown) VH: QVQLLQSGGGVVQPGRSLRLSCAASGFTFSSYGMHWVRQAPGKGLEWVAVISYDGSNKYYADSVKGRFTISRDNSKNTLYLQMNSLRAEDTAVYYCATRYENYFSTWGQGTLVTVSS VL: EIVLTQSPGTLSLSPGERATLSCRASQSVSSNYLAWYQQKPGQAPRLLIYGASSRPTGIPDRFSGSGSGTDFTLTISRLEPEDFAVYYCQQYAASPLTFGGGTKLEIK"
6.87e-10,6.52e-10,652,"S2H2 (antibody, V domains shown) VH: QVQLLQSGGGVVQPGRSLRLSCAASGFTFSSYGMHWVRQAPGKGLEWVAVISYDGSNKYYADSVKGRFTISRDNSKNTLYLQMNSLRAEDTAVYYCATFRENYFEYWGQGTLVTVSS VL: EIVLTQSPGTLSLSPGERATLSCRASQSVSSNYLAWYQQKPGQAPRLLIYGASSRPTGIPDRFSGSGSGTDFTLTISRLEPEDFAVYYCQQYAASPLTFGGGTKLEIK"
1.93e-10,3.28e-10,328,"S2H3 (antibody, V domains shown) VH: QVQLLQSGGGVVQPGRSLRLSCAASGFTFSSYGMHWVRQAPGKGLEWVAVISYDGSNKYYADSVKGRFTISRDNSKNTLYLQMNSLRAEDTAVYYCAGVRENYFTYWGQGTLVTVSS VL: EIVLTQSPGTLSLSPGERATLSCRASQSVSSNYLAWYQQKPGQAPRLLIYGASSRPTGIPDRFSGSGSGTDFTLTISRLEPEDFAVYYCQQYAASPLTFGGGTKLEIK"
